Laboratory results from the nanobody polyreactivity screen of Harvey et al. (2022).

Experiment: yeast display, Sf9 membrane polyspecificity reagent, FACS + sequencing; frameworks hold sequencing errors
In short: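 A nanobody's polyreactivity label depends on the gate it was sorted from. Yeast display cells were stained with 10% biotinylated, detergent-solubilized Sf9 membrane reagent for 1 hour at 4 °C, enriched on streptavidin microbeads and sorted by FACS. The low and high (top ~1%) gates were set on anti-HA fluorescence for expression and streptavidin fluorescence for reagent binding.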

With “QVQLVESGGGLHQAGGSLRLSCAASGSISGYNPMGWYRQAPGKESELVAVNTTDGSTNYADSVKGRFTISRDNAKNTVYLQMNSLKPEDTAVYYCNTHDGWRLLWEYDYWGQGTQVTVSS” as the sequence, how does the “polyreactivity (PSR sort gate)” value read?
Its value is “low polyreactivity”.

For “QVQLVESGGGLLQAGGRLRLSCAASGFTSTRYAMGWYRQAPGKERELVAAISYGGGDTYYADSVKGRFTISRDNAKNTVYIQMNSMKPEDTAVYYCSSRLRSRNTRLYHWGQGTQGTVSS”, which “polyreactivity (PSR sort gate)” value is on record?
Its value is “high polyreactivity”.

Which “polyreactivity (PSR sort gate)” value does the source give for “QVQLVESGGGLLQAGGSLRISCAASGRIFYAKAMGRYRQAPGKERELVAGISSGGITNYADSVKGRFTISRDNAKNTVYLQMNSLKPEDTAVYYCAVESWNRWRNRNDYWGQGTQVSVSS” here?
Its value is “low polyreactivity”.

With “QVQLVESGGGLLQAGGSLRLICAASGRIFTYNAMGWYRQAPGKERELVAAISRRGGTTYYADSVKGRFTISRDNAKNTVYLQMNSLKPEDTAVYYCAALLYYATDDDYWGQGTQVTVSS” as the sequence, how does the “polyreactivity (PSR sort gate)” value read?
The value was “high polyreactivity”.

Which “polyreactivity (PSR sort gate)” value does the source give for “QVQLVESGGGLLQAGGSLRLSCAASGFIFGGNAMGWYREAPGKERELVAAIRSGGSTYYADSVKVRFTISRDNAKNTVYLQMISLKPLDTAVDYCAVRLRYAYRARGNYWGQGTQVTVSS” here?
The value was “low polyreactivity”.

With “QVQLVESGGGLLQAGGSLRLSCAASGFIFYDYAMGWYRQAPGKERELVAAITKPGGSTYYADSEKGRFTISRDNAKNTVYLQMNSLKPEDTAGYYCAADVMYYHKLTYGYDYWGQGTQVTVSS” as the sequence, how does the “polyreactivity (PSR sort gate)” value read?
The value was “high polyreactivity”.

Which “polyreactivity (PSR sort gate)” value does the source give for “QVQLVESGGGLLQAGGSLRLSCAASGFSFLCYAMGWYRQEPRKERELVASITYGGDSTYYADSVKGRFTISRDNAKNTVYLQMNSLKPEDTAGYYCNARPSYWWGGRLYGYWGQGTQVTVSS” here?
The value was “high polyreactivity”.

Which “polyreactivity (PSR sort gate)” value does the source give for “QVQLVESGGGLLQAGGSLRLSCAASGGIIYYNAMGWSRQAPGKERELVAAIRYRGGSTYYADSVKGRFTISRDNEKNTVYLQMNSLKPEYTAVYYCAVDNLRRGLSLYDTLDYWGQGTQVTVSS” here?
The value was “low polyreactivity”.

For “QVQLVESGGGLLQAGGSLRLSCAASGGIKSENAMGWYRQAPRKERELVAVITDGGSTNYADSVKGRFTISRDNAKNTVYLQMNSLKPEDTAVYYCAKDTYLELWLDPLYDYWGQGTQVTVSS”, which “polyreactivity (PSR sort gate)” value is on record?
Its value is “low polyreactivity”.

With “QVQLVESGGGLLQAGGSLRLSCAASGIIIVGYAMGWYRQAPGKERELVAAISRSSGSTYYADSVKGRFTISRDNAKNTVYLQMNSLKPEDTAVYYCARYNQYYSTEDYWGQGPQVTVSS” as the sequence, how does the “polyreactivity (PSR sort gate)” value read?
The value was “high polyreactivity”.

With “QVQLVESGGGLLQAGGSLRLSCAASGITFYLYAMGWYRQAPGKVRELVAAITKSGASTYYADSVKGRFTISRDNAKNTVYLQMNSLKPEDTAVYYCAAVLQSGYGYEYWGQGTQVTVSS” as the sequence, how does the “polyreactivity (PSR sort gate)” value read?
Its value is “high polyreactivity”.

Which “polyreactivity (PSR sort gate)” value does the source give for “QVQLVESGGGLLQAGGSLRLSCAASGLIFQNYAMGSYRQAPGKEREFVATITSSGTSTYYADSVKGRFTISRDNAKNTVYLQMNSLKPEDTAVYYCAATGYWWEYDYWGQGTQVTVSS” here?
Its value is “high polyreactivity”.

With “QVQLVESGGGLLQAGGSLRLSCAASGLIFYDNMGWYRQAPGKERELVAAISSTGGSTSYADSVKGRFTISRDNAKNTVYLLMNSLKPEDTAVYYCAADSYPAYLGFVGFDYWGQGTQLTVSS” as the sequence, how does the “polyreactivity (PSR sort gate)” value read?
Its value is “low polyreactivity”.

Which “polyreactivity (PSR sort gate)” value does the source give for “QVQLVESGGGLLQAGGSLRLSCAASGNTFVKYTMGWYRQAPGKERELVAAITWSGGSTSYADSVKGRFTISRDNAKNTVYLQMNSLKPEDTAVYYCAAAWSHSRWDTHDYWGQGTQVTVSS” here?
Its value is “low polyreactivity”.

With “QVQLVESGGGLLQAGGSLRLSCAASGRTFATYAMGWYRQAPGKERELVAAITSGGSTNYADSVKGRFTISRDNAKNTVYLQMNSLKPEDTAVYYCNAYKTNRGSGPWYTGRYDYWGQGTQVTVSS” as the sequence, how does the “polyreactivity (PSR sort gate)” value read?
Its value is “low polyreactivity”.

With “QVQLVESGGGLLQAGGSLRLSCAASGRTFGSYAKGWYRQAPGKERELVAGIRSDDITHYADSVKGRFTISRDNAKNTVYLQMNSLKPEDTAVYYCAKDYKCIATEGAFDYWGQGTQVTVSS” as the sequence, how does the “polyreactivity (PSR sort gate)” value read?
Its value is “low polyreactivity”.

Which “polyreactivity (PSR sort gate)” value does the source give for “QVQLVESGGGLLQAGGSLRLSCAASGRTFNKYAMGWYRKAPGIVRELVAAINYSGGRTYYADSVKGRFTISRDNAKNSVYLEMNSLKPEDTAVFYCAATPTFFVWQGYNYWGQGTQVTVSS” here?
Its value is “low polyreactivity”.

For “QVQLVESGGGLLQAGGSLRLSCAASGRTFTNSAMGWYRQEPGKERELVAGISSSGGRTYYAVSVKGRFTISRDNAMNTVYLQMNSLKAEDTAVYYCAAQHSRVYRRMDYWGQGTQVSVSS”, which “polyreactivity (PSR sort gate)” value is on record?
Its value is “high polyreactivity”.

For “QVQLVESGGGLLQAGGSLRLSCAASGRTLGIYAMGWYRQAPWKERELVAAITLSGSDTYYADSVKGRFTISRDNAKNTVYLQMNSLKPEDTAVYDCAAKTYGGYGKYGYWGQGTQVTVSS”, which “polyreactivity (PSR sort gate)” value is on record?
Its value is “low polyreactivity”.

For “QVQLVESGGGLLQAGGSLRLSCAASGSTFNKYTMGWYIKAPGKERELVAAITSGDSTYYADSVKGRFTISRDNAKYTVYLQMNSLKTEDTAVYYCAKSLRAYRHVIYGKPFYSWGQGTQVTVSS”, which “polyreactivity (PSR sort gate)” value is on record?
The value was “low polyreactivity”.

Which “polyreactivity (PSR sort gate)” value does the source give for “QVQLVESGGGLLQAGGSLRLSCAASGSTFYDNAMGWYRQAPGKERELVAAISYSGASTYYADSVKGRFTISRDNEKNTVYLQMNSLKPEDTAVYYCAKTFYSLYWGQGTQVTGSS” here?
The value was “low polyreactivity”.

With “QVQLVESGGGLLQAGGSLRLSCAASGSTFYKYAMGWYRHAPRKERELVASISRSGRSTYYADSVKGRFTISRDNAKNTVYLQMNSLKPEDTAVYYCAATWRQHPGSMGYWGQGTQVTVSS” as the sequence, how does the “polyreactivity (PSR sort gate)” value read?
Its value is “high polyreactivity”.

For “QVQLVESGGGLLQAGGSLRLSCAASGSTYIGNAMGWYRQAPGKERELVAAITSGGSTNYADSVKGRFTISRDNAKNTVYLQKNSLKPEDTAVYYCAKPSRWGWTGFYAYDYWGQGTQVTVSS”, which “polyreactivity (PSR sort gate)” value is on record?
The value was “low polyreactivity”.

Which “polyreactivity (PSR sort gate)” value does the source give for “QVQLVESGGGLLQAGGSLRLSCASSGRTFARYVMGWYRQAPGKERELVAAITRSGGSTYYADSVKGRFTISRDNAKNTVYLQMNSMKPEDTAVYYCAATLRWGLYNTFYSTFNVSYYYWGQGTQVTVSS” here?
Its value is “high polyreactivity”.

With “QVQLVESGGGLLQAGGSLRLSFAASGFTFGRYAMGWYRQAPGKERELVAAISTSGGRTYYADSVKGRFTISRDNAKNTVYLQMNSLKPEDTAVYYCAAEQRRFTGYDYWGQGTQVTVSS” as the sequence, how does the “polyreactivity (PSR sort gate)” value read?
Its value is “high polyreactivity”.

Which “polyreactivity (PSR sort gate)” value does the source give for “QVQLVESGGGLLQAGGSLRVSCAASGSIIFFYAMGWYRQAPGKERELVAAISKSPSSTYYADSVKGRFTISRDNAKNTVYLQMNSLKPEDTAVYYCNTGYSGIQYYYWGQGTQVTVSS” here?
Its value is “low polyreactivity”.

With “QVQLVESGGGLLQAGGSLSLSCAASGFTFIGYAMGWYRQATGKEREFVAAISWSGGRTYYADSVKGRFTISRDNAKNTVYLQMNSLKPEDTAVYYCAARGSRKPDWGLGYWGQGTQVTVSS” as the sequence, how does the “polyreactivity (PSR sort gate)” value read?
The value was “high polyreactivity”.

For “QVQLVESGGGLLQAGGSLSLSCAASGFTFNRNAMGWYRQAPGKERELVAAISWSGGSTYYADSVKGRFTISRDNAKNTVYLQMNSLKPEDTAVYYCAKGYRRVYSMDWGQGTQVTVSS”, which “polyreactivity (PSR sort gate)” value is on record?
The value was “low polyreactivity”.

Which “polyreactivity (PSR sort gate)” value does the source give for “QVQLVESGGGLLQAGGSQSLSCAASGIISFSNTMGWYIQAPGKERELVAAIDSGGDDTYYADSVKGRFTISRDNAKNSVYLQMNCLKAEDSAVDYCAKDAFFTEIAIRDQIISHHYYWGHGTQVTVSS” here?
The value was “low polyreactivity”.

With “QVQLVESGGGLLQAGVTLRLSCAPSGFTQDSYSMGWYRQAPGKERELVARIRWSGGSTYYADSVKGRFTISRDNAKNTVYLQMNSLKPEDKAVYYCAADRPYYFLPYSTYTNYDSWGQGTQVTVSS” as the sequence, how does the “polyreactivity (PSR sort gate)” value read?
The value was “low polyreactivity”.

For “QVQLVESGGGLVEAGGSHRLTCAASGSTFGWYPIGWYRQAPGTERELVAGINSRGGSTYYADSVKGRFTISRDNAQNTVYLQMNSLKPEDTAVYYCNTVWASRRAHDYWGQGTQVTVSS”, which “polyreactivity (PSR sort gate)” value is on record?
Its value is “high polyreactivity”.

For “QVQLVESGGGLVEAGGSLRLRCAASGISYRYYAMGWYRQAPGKERELVAAITYRGGTTYYADSVKGRFKISRDKEKNTVYLQMNSLKPEDTAVYYCATDVNSYGYYYWGQGTQVTVSS”, which “polyreactivity (PSR sort gate)” value is on record?
The value was “high polyreactivity”.

With “QVQLVESGGGLVEAGGSLRLSCAASASISGRYAMGSYRQAPGKERELVAAISWIGGSTYYADSVKGRFTISRDNAKNTVYLQMNSLKPEDTAVYYCNVTIDTRTHPLLVVFYGYDYWGQGTQVTVSS” as the sequence, how does the “polyreactivity (PSR sort gate)” value read?
Its value is “low polyreactivity”.

For “QVQLVESGGGLVEAGGSLRLSCAASGGIFPVNAIGWYRQAPGKERELVATITYDGANTYYADSVKGRFTISRDNAKNTVYLQMNRLKPEDTAVYYCAKDRLSFYGYISYIGYGYDYWGQGTQVTVSS”, which “polyreactivity (PSR sort gate)” value is on record?
Its value is “low polyreactivity”.

With “QVQLVESGGGLVEAGGSLRLSCAASGRIFRKYTMGWYRQAPGKERELVAAISRNGGDTYYADSVKGRFTISRDNAKNTVYLLMNSLKPEDTAVYYCNARTPTDSTHFDYWGQGTQVSVSS” as the sequence, how does the “polyreactivity (PSR sort gate)” value read?
The value was “low polyreactivity”.

With “QVQLVESGGGLVEAGGSLRLSCAASGRIFWGNAMGWYRPAPGKERELVAAITRGGSTNYADSVKGRFTISRDNAKNTVYLQMKSLKPEDTAVYYCAARTRSRGNSWTYDYWGQGTQVTVSS” as the sequence, how does the “polyreactivity (PSR sort gate)” value read?
The value was “high polyreactivity”.

Which “polyreactivity (PSR sort gate)” value does the source give for “QVQLVESGGGLVEAGGSLRLSCAASGSIFDDYAMGWYRQAPGEERELVAAITWNGGSTYADSVKGRFTISRDNAKNTVYFQMNSLKPEDTAVYYSAADYFVYWYYGYGYWGQGTQVTVSS” here?
The value was “low polyreactivity”.

Which “polyreactivity (PSR sort gate)” value does the source give for “QVQLVESGGGLVEAGGSLRLSCAASGSTFRYYAMGWYRQAPGKERELFAAITWSGGSTNYADSVKGRFTISRDNAKNTFYLQMNSLKPEDTAVYYCNARYLYRHSRYARYDSWGQGTQVTVSS” here?
The value was “high polyreactivity”.

Which “polyreactivity (PSR sort gate)” value does the source give for “QVQLVESGGGLVEAGGSLRLSCAATGRTIRAYAMGWYRPEPGKERELVASISSGGSTKYADSVKGRFTISRDNAKNTVYLQMNSLKPEDTAVYFCAADRLLYGVDYWGQGTEVTVSS” here?
Its value is “low polyreactivity”.

With “QVQLVESGGGLVEAGGSLRLSCAAYGFIFSHNTMGCYRQAPGKERELVAGISWSGGNTYYSDSVKGRFTISRDNAKNTGYLQMNRLKPEDTAVYSFNVRFVTGYRYRYGDDYWGQGTQVTVSS” as the sequence, how does the “polyreactivity (PSR sort gate)” value read?
The value was “low polyreactivity”.
